The values that follow come from patent publication US20200115416A1 (REGENTS OF THE UNIVERSITY OF MINNESOTA, published 2020).

Common to all, as to assay: cell-based or functional assay
The target of assay [1] is T1, mouse melanocortin-5 receptor (mouse, UniProt P41149 1-325).
For assay [2], the target named is T2, mouse melanocortin-1 receptor (mouse, UniProt Q01727 1-315).
Assay [3] has as its target T3, mouse melanocortin-3 receptor (mouse, UniProt P33033 1-323).
The target of assay [4] is T4, mouse melanocortin-4 receptor (mouse, UniProt P56450 1-332).
Assay [5] has as its target T1, mouse melanocortin-5 receptor. This is another data set of the same source.
Assay [6] has as its target T2, mouse melanocortin-1 receptor. The source holds these as a separate data set.
In assay [7] the target is T3, mouse melanocortin-3 receptor. This is another data set of the same source.
Assay [8] deals with T1, mouse melanocortin-5 receptor. This is another data set of the same source.
Assay [9] has as its target T2, mouse melanocortin-1 receptor. This is another data set of the same source.
The target of assay [10] is T3, mouse melanocortin-3 receptor. This is another data set of the same source.
For assay [11], the target named is T4, mouse melanocortin-4 receptor. The source holds these as a separate data set.
Assay [12] addresses human melanocortin-4 receptor (human, UniProt P32245 1-332).

Where two headings read alike, the source gives them in different places. Square brackets hold non-standard residues; d marks the D form. hPhe = N[C@@H](CCc1ccccc1)C(=O)O; Nle = CCCC[C@H](N)C(=O)O; Dap = NC[C@H](N)C(=O)O A value given as a limit tells only on which side of the number the result lay.

T2 sequence (Q01727 whole entry): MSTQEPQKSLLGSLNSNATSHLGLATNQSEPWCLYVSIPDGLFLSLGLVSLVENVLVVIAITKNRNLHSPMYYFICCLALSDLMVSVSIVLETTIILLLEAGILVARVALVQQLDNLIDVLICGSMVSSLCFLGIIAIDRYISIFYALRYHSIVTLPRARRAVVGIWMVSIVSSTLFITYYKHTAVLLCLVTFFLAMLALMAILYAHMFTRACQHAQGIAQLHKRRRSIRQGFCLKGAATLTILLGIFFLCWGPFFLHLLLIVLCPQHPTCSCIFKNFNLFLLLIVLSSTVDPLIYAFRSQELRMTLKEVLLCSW
T4 sequence (P56450 whole entry): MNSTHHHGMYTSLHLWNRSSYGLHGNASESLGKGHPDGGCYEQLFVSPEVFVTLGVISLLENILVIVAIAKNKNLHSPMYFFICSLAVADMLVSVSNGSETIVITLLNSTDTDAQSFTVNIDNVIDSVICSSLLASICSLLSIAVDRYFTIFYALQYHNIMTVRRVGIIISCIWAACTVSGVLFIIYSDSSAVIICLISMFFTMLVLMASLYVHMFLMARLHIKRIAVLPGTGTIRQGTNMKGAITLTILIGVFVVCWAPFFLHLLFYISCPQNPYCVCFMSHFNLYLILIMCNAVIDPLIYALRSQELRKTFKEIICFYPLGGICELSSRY
Chain of human melanocortin-4 receptor (P32245 whole entry): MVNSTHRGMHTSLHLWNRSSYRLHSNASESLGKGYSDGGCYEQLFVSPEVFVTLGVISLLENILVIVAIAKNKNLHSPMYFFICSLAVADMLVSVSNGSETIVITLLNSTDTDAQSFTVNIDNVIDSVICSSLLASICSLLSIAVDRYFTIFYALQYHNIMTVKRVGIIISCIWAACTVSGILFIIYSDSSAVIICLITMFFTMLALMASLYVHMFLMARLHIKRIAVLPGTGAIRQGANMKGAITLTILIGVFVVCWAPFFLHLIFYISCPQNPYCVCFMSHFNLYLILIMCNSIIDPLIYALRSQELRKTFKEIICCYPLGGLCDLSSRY
T1 sequence (P41149 whole entry): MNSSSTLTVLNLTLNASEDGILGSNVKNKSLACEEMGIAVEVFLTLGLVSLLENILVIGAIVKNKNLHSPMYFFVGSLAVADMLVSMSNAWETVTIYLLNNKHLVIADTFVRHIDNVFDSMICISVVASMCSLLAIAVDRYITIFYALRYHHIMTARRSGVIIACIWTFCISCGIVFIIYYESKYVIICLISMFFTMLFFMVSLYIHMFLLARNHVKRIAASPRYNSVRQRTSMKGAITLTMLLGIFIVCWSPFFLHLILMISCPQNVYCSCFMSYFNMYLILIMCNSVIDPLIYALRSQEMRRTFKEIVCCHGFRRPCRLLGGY
T3 sequence (P33033 whole entry): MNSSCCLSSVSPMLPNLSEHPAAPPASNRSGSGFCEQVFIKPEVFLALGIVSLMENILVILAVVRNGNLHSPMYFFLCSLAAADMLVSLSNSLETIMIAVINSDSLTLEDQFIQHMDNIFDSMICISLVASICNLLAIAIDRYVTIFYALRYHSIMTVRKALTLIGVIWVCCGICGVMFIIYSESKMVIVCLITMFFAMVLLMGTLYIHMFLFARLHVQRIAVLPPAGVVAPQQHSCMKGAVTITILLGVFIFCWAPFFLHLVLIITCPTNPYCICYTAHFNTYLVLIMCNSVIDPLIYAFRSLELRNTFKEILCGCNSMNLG

B1: c[Pro-Arg-Phe-hPhe-Dap-Ala-Nle-DPro] (peptide)
peptide: cyclo(PRF[hPhe][Dap]A[Nle][dP])
SMILES: CCCC[C@@H]1NC(=O)[C@H](C)NC(=O)[C@H](CN)NC(=O)[C@H](CCc2ccccc2)NC(=O)[C@H](Cc2ccccc2)NC(=O)[C@H](CCCNC(=N)N)NC(=O)[C@@H]2CCCN2C(=O)[C@H]2CCCN2C1=O
Consider B1, for which the “EC50 (cAMP AlphaScreen, inverse agonist)” value in assay [1] is greater than 100 µM. Also, the “agonist EC50 (cAMP AlphaScreen)” value in assay [2] was greater than 100 µM. For the same molecule, the “antagonist pA2 (Schild, agonist NDP-MSH)” value was 6.7 in assay [3] and 9.1 in assay [4].

B2: c[Pro-Arg-Phe-hPhe-Arg-Ala-Nle-DPro] (peptide)
peptide: cyclo(PRF[hPhe]RA[Nle][dP])
SMILES: CCCC[C@@H]1NC(=O)[C@H](C)NC(=O)[C@H](CCCNC(=N)N)NC(=O)[C@H](CCc2ccccc2)NC(=O)[C@H](Cc2ccccc2)NC(=O)[C@H](CCCNC(=N)N)NC(=O)[C@@H]2CCCN2C(=O)[C@H]2CCCN2C1=O
Turning to B2, in assay [1], the “EC50 (cAMP AlphaScreen, inverse agonist)” value is greater than 100 µM. The “agonist EC50 (cAMP AlphaScreen)” value in assay [2] is greater than 100 µM. The figures for the “antagonist pA2 (Schild, agonist NDP-MSH)” value in [3] and in [4] were 7.5 and 8.8, respectively.

B3: c[Pro-Arg-Phe-Phe-Asn-Ala-Trp-DPro] (peptide)
peptide: cyclo(PRFFNAW[dP])
B3: in assay [5], the “inverse agonist apparent potency” value was determined as 0.15 µM and the “inverse agonist, % decrease from basal cAMP” value is -20%.

B4: c[Pro-Arg-Phe-hPhe-Arg-Ser-Phe-DPro] (peptide)
peptide: cyclo(PRF[hPhe]RSF[dP])
SMILES: N=C(N)NCCC[C@@H]1NC(=O)[C@H](CCc2ccccc2)NC(=O)[C@H](Cc2ccccc2)NC(=O)[C@H](CCCNC(=N)N)NC(=O)[C@@H]2CCCN2C(=O)[C@H]2CCCN2C(=O)[C@H](Cc2ccccc2)NC(=O)[C@H](CO)NC1=O
Regarding B4, in assay [1], the “EC50 (cAMP AlphaScreen, inverse agonist)” value was greater than 100 µM. Besides, the “% receptor stimulation at 100 µM (cAMP AlphaScreen)” value (“% receptor stimulation at 100 µM” below) in assay [2] turned out to be 30%. Moreover, the “antagonist pA2 (Schild, agonist NDP-MSH)” value in [3] worked out at 7.7; in assay [4] it was 8.8.

B5: c[Pro-Arg-Phe-hPhe-Dap-Ser-Phe-DPro] (peptide)
peptide: cyclo(PRF[hPhe][Dap]SF[dP])
SMILES: N=C(N)NCCC[C@@H]1NC(=O)[C@@H]2CCCN2C(=O)[C@H]2CCCN2C(=O)[C@H](Cc2ccccc2)NC(=O)[C@H](CO)NC(=O)[C@H](CN)NC(=O)[C@H](CCc2ccccc2)NC(=O)[C@H](Cc2ccccc2)NC1=O
B5: in assay [1], the “EC50 (cAMP AlphaScreen, inverse agonist)” value was greater than 100 µM. For the same molecule, the “% receptor stimulation at 100 µM” value in assay [2] was found to be 40%. For the same molecule, the “antagonist pA2 (Schild, agonist NDP-MSH)” value is 7.2 in assay [3] and 9.2 in assay [4].

B6: c[Pro-Arg-Phe-hPhe-Asn-Ser-Nle-DPro] (peptide)
peptide: cyclo(PRF[hPhe]NS[Nle][dP])
SMILES: CCCC[C@@H]1NC(=O)[C@H](CO)NC(=O)[C@H](CC(N)=O)NC(=O)[C@H](CCc2ccccc2)NC(=O)[C@H](Cc2ccccc2)NC(=O)[C@H](CCCNC(=N)N)NC(=O)[C@@H]2CCCN2C(=O)[C@H]2CCCN2C1=O
For the molecule B6, in assay [1], the “EC50 (cAMP AlphaScreen, inverse agonist)” value is greater than 100 µM. Further, the “agonist EC50 (cAMP AlphaScreen)” value in [2] is greater than 100 µM. For the same molecule, the “antagonist pA2 (Schild, agonist NDP-MSH)” value in assay [3] is 6.3; in assay [4] it was 9.2.

B7: c[Pro-Arg-Phe-Phe-Asn-Ala-Leu-DPro] (peptide)
peptide: cyclo(PRFFNAL[dP])
B7: in assay [5], the “inverse agonist, % change from basal cAMP at 100 µM” value (from here on “inverse agonist, % change”) was -35%.

B8: c[Pro-DArg-Phe-DPhe-Asn-Ala-Phe-DPro] (peptide)
peptide: cyclo(P[dR]F[dF]NAF[dP])
As for B8, in assay [6], the “agonist EC50 (cAMP AlphaScreen)” value turned out to be 1.2 µM. In addition, in assay [7], the “% maximal NDP-MSH response at 100 µM (cAMP AlphaScreen)” value amounted to 35%.

B9: c[Pro-Arg-Phe-hPhe-Arg-Ala-Phe-DPro] (peptide)
peptide: cyclo(PRF[hPhe]RAF[dP])
SMILES: C[C@@H]1NC(=O)[C@H](CCCNC(=N)N)NC(=O)[C@H](CCc2ccccc2)NC(=O)[C@H](Cc2ccccc2)NC(=O)[C@H](CCCNC(=N)N)NC(=O)[C@@H]2CCCN2C(=O)[C@H]2CCCN2C(=O)[C@H](Cc2ccccc2)NC1=O
B9: in [1], the “EC50 (cAMP AlphaScreen, inverse agonist)” value was greater than 100 µM. For the same molecule, the “% receptor stimulation at 100 µM” value in assay [2] was found to be 25%. The “antagonist pA2 (Schild, agonist NDP-MSH)” value was 8 in [3] and 8.9 in [4].

B10: c[Pro-Arg-Phe-Phe-Asn-Ser-Phe-DPro] (peptide)
peptide: cyclo(PRFFNSF[dP])
SMILES: N=C(N)NCCC[C@@H]1NC(=O)[C@@H]2CCCN2C(=O)[C@H]2CCCN2C(=O)[C@H](Cc2ccccc2)NC(=O)[C@H](CO)NC(=O)[C@H](CC(N)=O)NC(=O)[C@H](Cc2ccccc2)NC(=O)[C@H](Cc2ccccc2)NC1=O
As for B10, in [1], the “inverse agonist efficacy, % relative to basal” value is -14%. Moreover, the “agonist EC50 (cAMP AlphaScreen)” value was 1.2 µM in assay [2], greater than 100 µM in assay [9], greater than 100 µM in assay [10] and greater than 100 µM in assay [11]. Further, the “antagonist pA2 (Schild, agonist NDP-MSH)” value was 6.1 in assay [3], 8.1 in assay [4], 6.2 in assay [10] and 8.2 in assay [11]. In assay [8], the “inverse agonist, % change” value is -30%.

B11: c[Pro-Arg-Phe-Phe-Asn-Ala-hPhe-DPro] (peptide)
peptide: cyclo(PRFFNA[hPhe][dP])
B11: in [5], the “inverse agonist apparent potency” value amounted to 0.29 µM and the “inverse agonist, % decrease from basal cAMP” value was -20%.

B12: c[Pro-Arg-Phe-Phe-Asn-Ala-Tyr-DPro] (peptide)
peptide: cyclo(PRFFNAY[dP])
In the case of B12, the “inverse agonist, % change” value in [5] is -40%.

B13: c[Pro-Arg-Phe-Phe-Asn-Ala-Cha-DPro] (peptide)
peptide: PRFFNAXP
modifications: head-to-tail cyclic; Cha at 7; DPro at 8
On to B13, for which, in assay [5], the “inverse agonist apparent potency” value is 0.78 µM and the “inverse agonist, % decrease from basal cAMP” value is -20%.

B14: c[Pro-Arg-Phe-Phe-Ala-Ala-Phe-DPro] (peptide)
peptide: cyclo(PRFFAAF[dP])
In the case of B14, in assay [8], the “inverse agonist apparent potency” value is 0.25 µM and the “inverse agonist, % decrease from basal cAMP” value is -20%. In assay [9], the “agonist EC50 (cAMP AlphaScreen)” value was greater than 100 µM. Further, in assay [10], the “agonist EC50 (cAMP AlphaScreen)” value was greater than 100 µM and the “antagonist pA2 (Schild, agonist NDP-MSH)” value was less than 5.5. For the same molecule, in assay [11], the “agonist EC50 (cAMP AlphaScreen)” value is greater than 100 µM and the “antagonist pA2 (Schild, agonist NDP-MSH)” value came out at 7.32. Further, the “inverse agonist, % decrease from basal signal” value in assay [12] was -35%.

B15: c[Pro-Arg-Phe-hPhe-Dap-Ser-Nle-DPro] (peptide)
peptide: cyclo(PRF[hPhe][Dap]S[Nle][dP])
SMILES: CCCC[C@@H]1NC(=O)[C@H](CO)NC(=O)[C@H](CN)NC(=O)[C@H](CCc2ccccc2)NC(=O)[C@H](Cc2ccccc2)NC(=O)[C@H](CCCNC(=N)N)NC(=O)[C@@H]2CCCN2C(=O)[C@H]2CCCN2C1=O
As to B15, the “EC50 (cAMP AlphaScreen, inverse agonist)” value in [1] is greater than 100 µM. Besides, the “agonist EC50 (cAMP AlphaScreen)” value in assay [2] was greater than 100 µM. The “antagonist pA2 (Schild, agonist NDP-MSH)” value was determined as 6.7 in assay [3] and 9.5 in assay [4].

B16: c[Pro-Arg-Phe-hPhe-Asn-Ser-Phe-DPro] (peptide)
peptide: cyclo(PRF[hPhe]NSF[dP])
SMILES: N=C(N)NCCC[C@@H]1NC(=O)[C@@H]2CCCN2C(=O)[C@H]2CCCN2C(=O)[C@H](Cc2ccccc2)NC(=O)[C@H](CO)NC(=O)[C@H](CC(N)=O)NC(=O)[C@H](CCc2ccccc2)NC(=O)[C@H](Cc2ccccc2)NC1=O
B16: the “EC50 (cAMP AlphaScreen, inverse agonist)” value in assay [1] is greater than 100 µM. In addition, the “% receptor stimulation at 100 µM” value in [2] worked out at 40%. Further, the results for the “antagonist pA2 (Schild, agonist NDP-MSH)” value in assay [3] and in assay [4] were 6.5 and 8.6, respectively.

B17: c[Pro-Arg-Phe-hPhe-Arg-Ser-Nle-DPro] (peptide)
peptide: cyclo(PRF[hPhe]RS[Nle][dP])
SMILES: CCCC[C@@H]1NC(=O)[C@H](CO)NC(=O)[C@H](CCCNC(=N)N)NC(=O)[C@H](CCc2ccccc2)NC(=O)[C@H](Cc2ccccc2)NC(=O)[C@H](CCCNC(=N)N)NC(=O)[C@@H]2CCCN2C(=O)[C@H]2CCCN2C1=O
On to B17, for which the “EC50 (cAMP AlphaScreen, inverse agonist)” value in assay [1] is greater than 100 µM. The “agonist EC50 (cAMP AlphaScreen)” value in assay [2] is 0.4 µM. Moreover, the “antagonist pA2 (Schild, agonist NDP-MSH)” value in assay [3] was 7.9; in assay [4], 9.5.

B18: c[Pro-Arg-Phe-Phe-DDap-Ala-Phe-DPro] (peptide)
peptide: PRFFXAFP
modifications: head-to-tail cyclic; DDap at 5; DPro at 8
B18: in assay [8], the “inverse agonist apparent potency” value was 0.11 µM and the “inverse agonist, % decrease from basal cAMP” value was -10%. Moreover, the “agonist EC50 (cAMP AlphaScreen)” value in [9] is greater than 100 µM. Further, in [10], the “agonist EC50 (cAMP AlphaScreen)” value is greater than 100 µM and the “antagonist pA2 (Schild, agonist NDP-MSH)” value was determined as 6.7. In assay [12], the “inverse agonist, % decrease from basal signal” value was -30%.

B19: c[Pro-Arg-Phe-Phe-Asn-Ala-Lys-DPro] (peptide)
peptide: cyclo(PRFFNAK[dP])
In the case of B19, the “inverse agonist, % change” value in [5] is -40%.

B20: c[Pro-Arg-Phe-Phe-Asn-Ala-Nle-DPro] (peptide)
peptide: cyclo(PRFFNA[Nle][dP])
For B20, in assay [2], the “partial agonist, % receptor stimulation” value turned out to be 50%. Also, in assay [5], the “inverse agonist, % change” value is -35%.

B21: c[Pro-Arg-Phe-Phe-Abu-Ala-Phe-DPro] (peptide)
peptide: PRFFXAFP
modifications: head-to-tail cyclic; Abu at 5; DPro at 8
As for B21, in assay [8], the “inverse agonist apparent potency” value was 0.16 µM and the “inverse agonist, % decrease from basal cAMP” value was -20%. The “agonist EC50 (cAMP AlphaScreen)” value in [9] is greater than 100 µM. In [10], the “agonist EC50 (cAMP AlphaScreen)” value is greater than 100 µM and the “antagonist pA2 (Schild, agonist NDP-MSH)” value is less than 5.5. Besides, the “inverse agonist, % decrease from basal signal” value in assay [12] is -15%.
